Laboratory results reported in the domain aggregation screens of Martell et al. (2025).

Assay: soluble fraction after stress (log2 fold change); higher = more stays soluble; pooled small domains, quantitative proteomics
Settings: stress: 75 degC
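Also: 20 min heating vs room temperature control held 20 min.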

Sequence | soluble fraction (log2)
HMGILPDDVKLNIKEAKKIGFPIMLKAIHGGGGRGMMIVQSEDEFADAMKITKTEAKNSFGNGDLYFEKFF | 0.408
HMGITRQQALQQINQSASPKKILNASLGKRGSEFVWDIGYLSKSGKLNYVTYSFRSGEQLNAIKN | -1.03
HMGIVAGGTQSIATLRAIDTTDAQLYPDKILINVEDAGLYRLDRQSTATDDGNQVIKPTVGVGRWLKMTS | -0.15
HMGIVVDGTMTLEGVAERYGMSVGELARVIGVPPEYSNERLGRLRKSYEFEMDDIRIYIIQKQ | -1.54
HMGKAYMVPDVKNKSVNQAQLLLADKHMNGVVVDSSYVKELPAGIVLDQTPVGGMKVKEGRTVYLTINSD | 0.156
HMGKDIYLTSGWVEKFDELNEFSNSVDNYDRLNQFGMYENAIIGDTGVIKITDEMIFDLYEKIQVPVEAGP | -0.0582
HMGKEDLTAAIKKMTLNDKLDIHKIVANFQTNDSEEVITAVKWLMENNYLLKIKNNYTWNTKEK | -0.901
HMGKHYLLKDDNGTITIYKILEDGTQEVYEKTEISTTYLPQTDNIGIKQGIRVNGDEALNELIENF | -0.0623
HMGKKGPELSENEKSIFSILSKSGSMDLTTLKEASGLSNKQWDKGIKGLGKHGLTKVIKTEDALLVEVV | 0.0471
HMGKKYVPGMAVKLSAVPLYAASTSKVPSTHVTGTYYLWDDEVVRGRLRITNLKSRVGISGQVTGWIDKDR | -1.95
HMGKNIQAIRYKNNMTQDQVVAKLNLMGISITKSTYAKLETNRMNIKASELVALAKLFHTDINAFFSG | -3.12
HMGKNYYEILGITKSASEEQVRKAFRGLAMEWHPDRNRSADSEERFKEINEAYQVLIDPKKRQMYDQYGR | 0.394
HMGKPSSEELEALGRRTLEENVDVVEEILGGRDPKGKKIKYLEGLMMRALRGQETPEAVRRTLEELIFK | -0.132
HMGKRGKEMQTAVLAILRASDRPYSAYELLESLKDIYPKIAPPTVYRALAALTQRGQIRRLESLNAFI | -0.221
HMGKRKDFTYTGNYFSEYKNQTFPSLSSFLKLVGKYENYGTIKRRVRFGWDIDEAILRENIN | -1.94
HMGKSKAAQSSLVRSIMHQISDKNRGPMPLSEIIDRASIQSIDEAIVRSLVSRMKEQGEIYEPSLGTYEF | -0.105
HMGKTIIQLATDYLIKNMQPKSLHDIESYVLTRKKIKKSSIGAILLSKPNIFGRTEDGLFGLRIWNNFQYT | -1.37
HMGKTRSTDRTRRAILDAASDLMGKHGTSVSLARIAEAAGMSKGGLLHHFPSRNDLIRALGED | 0.011
HMGKVNTRNRNEGKFYKNGKKKPANWEYRFEAAPVNGKRQQISDAGYPTEKAAYEAGIAAYEKYNSAGSVN | -0.0957
HMGKVTILSNPVKDALVIMGLHNAETIDVRLFDNTGRLVMQGSQSRMDISSLSPGLYILQVNGKILKVIK | -3.2
HMGLASEVKTEDVLNEEKYDFEPDLIGNNNEAIYQNKQTGSYVLFDRNQNKVTKVLSAGEVLNHSKYNE | -0.138
HMGLDQNTLDRVDDINDTLATGIEIGPETRGTIEELNETLANGLKAGFDEETLARVDELLRVVEDGLK | 0.0586
HMGLGQRIKARREALGLSQARLGEAVGVSLQAVSNWERDEYLPDTARLPLIARALGLTPGQLME | -0.182
HMGLKDTEVYMPDVRGLIEEEAQTKLKASFLTMKVSYTSSDEVKKGYVISQAPSADSVVLKGASVTVIVS | -2.56
HMGLLVPELTAEENVSLAAMIAGVPRQQARSISADLLNRLGLGQMLDRRMGEMSGGQAQRVAIAPIYGKF | -0.408
HMGLNVSYRMDGENVVETIIFSGATMIRTVTPTGTMTIKTIENGSTSTAKVNADYSVYKKIYEAQY | -2.69

Sequence | soluble fraction (log2)
HMGLPLETVVTHATKLEIVRDGRVSGSIGLSAGVKVDVIALEGDNLQVRYRSLSGRVPVAHTGLAALA | -1.58
HMGLPPIATGVNDNMSFSQAFAAARAEVGAGGAFEWHGRVYGTYYKNEWDGMSAQERHDFEIAAIRGS | -0.0369
HMGLSIPLMGAKASDIEISTLNDEVQRKLKIIVKEQGHENLQRVVPLPSEAREIQAHFINGRLHLR | 0.0158
HMGLYPYSGTPADNQEANERRIFDIYSTHLERIFSDFSGATLRTKRLVLRLMQELVHSDPVRMAGILDEL | 0.0962
HMGMAQELMESRLTAVFTSGKDQLAVLQRKDGSTLKLGADSKPWRIESFDGRKAVFVSADQQRVERLL | -0.342
HMGMGIGQIIKEKRTALKMTQNELAERLGVSQQSVTGWENNAAVPRESAVRGMMDIFGLSRNELFGEP | 0.389
HMGMMTLGQRIAQYRKAMGISQEELGGRLGVSRQAVSKWETDAAAPDMENLLALAREFGVSVAELTETP | -0.187
HMGMTRPLFVTDPGLVRIGLVSPIFEKLGSGKLSPQLFDQVKEDPPEQTVFDGVEFARETGIDGVIGFG | 0.00642
HMGMVDKSMYSRYDVGDLVKVLRGPLEGSEGHITEINTDTGTVKVETVFFGRSTVVEVDFSEIDK | -1.37
HMGNAQELQKKLEGLKGISGIEKLESDHYAEKYLVRITQPVDHKNPAAGTFTQRVIVAHVGFDRPTILVT | 0.51
HMGNHRNMSAEEEAAILAPFKARAEAGELVEISEIAKAYQSAVDHPISRGQIYFVLHRHGWRKV | -1.2
HMGNIALAIARFREMIAEDPNLQPVRLHLAMALMADHQDEAARGQLEKLRSDQLPDDIRKIVDDALAALR | -1.46
HMGNIIITPNPASDFIKIISNSPIIKFGFYDIYGNTINKKFNDNSINISDLPVGMYLINLNERYFKLLK | -0.259
HMGNIITQEAAVKLAQDRVPNATLVKIEYDFDDGRPVYEGELREGRWEYEFEIDAATGEFLKWEKD | 0.0823
HMGNKWKPIILYLLSNGSMRFGMLNALIPTISKKVLTNQLKELENDGLLLRQSFAEIPPRVEYSLTEKA | -2.31
HMGNLASGAYEQIKRRILSLEYLPGSILQERGLAEELGISRTPVREAIHRLSQEGWLKINSRKNIRVR | -2.32
HMGNLASRVAEQLLDKMRGDSLVPGTRLPSEIAMAKHFGVSRTVMREAIARLKADGLLETRRGSGAFVLAT | -0.973
HMGNLEENFRLKAGTEDGAWEFIRYHLGKLPVVNESNGTAIVNAERQAFLLFDRMVAFHIQRGVMVPLSAP | -0.0214
HMGNLVDGINKKLTHVRDSLPEGYTLDEFKSAFQQQYPAAYDAYEGDKGKQFDKWLGNVIQSLPKK | 0.0554
HMGNNSIDIKDVIYNLVEISQLQAFDIVKHFKTWENLVNKPDELDTVIDGDSDIVDRIKYKIKSLS | 0.344
HMGNQALSSVLSDIAGIGPVKTKELLRVYPDLDSLRQAPVEEVAKVKGIGRQLAQKIHDHFSSR | -0.0292
HMGNRWENLISNKMIDDVDEELLRKYIAQAHDAGRIAISYTDRKTVLNQLELTDGDRLLNAGKVLFSD | -0.392
HMGNTTEVLVATQDVKANTKIKESMFTTERVDTASLPDNYLSADSAKDVVGYYTYIGFTKGSVISKSNIAT | 0.625
HMGNVRSWKGWTSAGGTRVQMRQGDSINSMARRYGVPIQAIVAVNGIDDPAKVQPGQSVIIPTYVY | -0.29
HMGNWEQQLRSWADGELATGKQDILTTAVPAFERALIETALSHTNGRKRDAAELLGWGRNTLTRKLKELGM | -0.401
HMGNYEEAILAFEAAIKIDPKNADAYRKLAEAYEKTGDEDAALRTLETGAEATGDRELADLAEKKRQELDA | -0.0773

Sequence | soluble fraction (log2)
HMGPASTGAHQLGLKPGDEVTHRAWGEGVVTSTTGEGDRAEAVVDFDAVGEKRLLLAWAPLER | 0.0111
HMGPDTVDRTRRFKWVDNEVVVNFGKNAGRTLRDLAENDPGFLRWIVRSDFSDEVRTIANDALMGKFPTRK | -0.283
HMGPEAFPVPYVVDIELDRAIYVIEQSGFIVGQKLEANDNNVPRGFVISQNPPAGTKLGPESIVDLVVSS | -1.16
HMGPLDIAQLKSDFLGGDAQLARRAWDQLATKAGDEGRDFLISSLGSSDPQIRNRVALGIHES | 0.069
HMGPLTMGQRIVRLRTQAGLSQDALAEQLGVSRQSVSKWETDGSVPDLDRLVKLSKVFGVTLDELVKG | -0.202
HMGPPAVGAKLQVLRQARKLSLDELSRRAGVSKSMLSQVERNLANPTVAVLWRLATALGVGLADFLSP | -3.02
HMGPRVSAGPGRHRVQPGDTLDDIAARYRVSSRDLMLVNGLRNANHVEAGQTLKLPSNAVIA | 0.15
HMGPSLIRIASNPVAEVFIDGTRVGTTPFEMPADGTLKTVRLTAKDHDDLVVPLRSMKSMEIMLTLRRI | -2.54
HMGPTLTDEEEVVLNLLEKNHPVLLSELKENAGLSNKKWDKAIKGLSAHKLAKVTKTDDGLFVHLS | 0.615
HMGPTPTSAQLTEAKRLRTKLDDLNPELAERLWSEHREPYTETQYQTLIEKLAAEVQSAEGEIGR | 0.222
HMGPVRRDLEINGRMVPLTIREHARATRITLRIEPGGQALRLTIPPGLPTREVDSFLTRHHGWLMTKLAHI | -2.47
HMGPWTETAAKGDAVSKRMLITWLQENADAEFLAAQKLTGQATSVAKRVTKDQLVELYLSVTTAA | -1.42
HMGQAAHYEGVKGDGESDTDVISRVLTAAGAEAQKDDIFVVKELIAGGKYSYTAYVYDGSVWAAM | -0.529
HMGQAEEVRYSTFLDEVRNGRIEQVVLQGEHIIGTRKDKTVFSVFNPETDYTALIGTLSKSGVTIEGRP | 0.283
HMGQARQSAIRELGNDPTSGKKITVRSGRYGPYVTDGEVNASLRKGDDPQTIDLDRAIELLAARREKLG | -0.148
HMGQDGFIGLEAAKKLVLQKLGLTSAEFIKAELDAEDRKYELELIVDGIEYDFDIDAYSGAFLKQEQETV | -0.519
HMGQEEKDIFLKLINISGIGPKLALNILSGIEASELEEAVRNTNVTRLSMVPGIGQKTALRIIMELSDKLE | -0.298
HMGQELTMPDLKSMSRSNAEEKLKKMGLKLGAVFEENAKEPAGTVINQDPRSGSKITKGQTVDITVSLGEK | 0.265
HMGQERAVPDVKGQSFDMAQGNISRAGLKAVVTDSVYDSYARPGTVVEQSPIPLAKIKRGGTVYLTLVA | -0.118
HMGQGSAFVYYEVLPKQTEYSLTRKLGLGYADLLSLNPQLARGLQAGMVLKIPRDKAGNLEVKNDLILE | -0.643
HMGQISLSVNAIPEKAEVILDGNSIGNTPIRKNTITPGSHMFEIEKKGYAPISYDIYVNPSKAINLDFFM | -0.974
HMGQKDYKTRLQEYFAKQGLKVNYEDTSHGPDHNKNFSTDVFLDGKIIGSGIGKSKKSSQQSAAKDALNIL | 0.473
HMGQLIGKEEAKQIALSRAGVAEGDISRYESELDTDDGKTKYEISFHVGRVEYDIEINAVTGAVEKFEMDN | 0.587
HMGQTDTIIKTTTDLYYEMSTMSDDDKLVVAQTLRDVWMAVGRWSGKLSKKQREKVAEVKRVLGE | -0.866
